Source: the RNAGym collection of RNA variant scans (doi:10.1093/nar/gkz1192)

B1: CPEB3 Ribozyme (parent)
chain: UAACAGGGGGCCACAGCAGAAGCGUUCACGUCGCAGCCCCUGUCAGAUUCUGGUGAAUCUGCGAAUUCUGCUGUAUAUCUC

Variants of: B1
Assay: self-cleavage, relative activity (ratio to wild type); higher = more cleavage; in vitro, sequencing
How it was run: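 For each CPEB3 ribozyme variant, relative activity is its cleaved/total read fraction divided by the unmutated ribozyme's. Barcoded error-prone PCR libraries were transcribed by T7 RNA polymerase (5 hours, 37°C) and held in DNase I for 15 min before an EDTA stop, with cleavage occurring throughout. Template-switching reverse transcription and Illumina sequencing were used to read the RNAs. A 5-read minimum applied, and results are the mean of three batches.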

Variant | self-cleavage
UAACAGGGGGCCACAGCAGAGGCUUUCACGUCGCAGCCCCUGUCAGAUUCUGGUGAAUCUGCGAAUUCUGCUGUAUAUCUC [A21G G24U] | 0.44
UAACAGGGGGCCACAGCAGAGGCCUUCACGUCGCAGCCCCUGUCAGAUUCUGGUGAAUCUGCGAAUUCUGCUGUAUAUCUC [A21G G24C] | 0.23
UAACAGGGGGCCACAGCAGAGGCAUUCACGUCGCAGCCCCUGUCAGAUUCUGGUGAAUCUGCGAAUUCUGCUGUAUAUCUC [A21G G24A] | 0.24
UAACAGGGGGCCACAGCAGAGGCGUUCACGUCGCAGCCCCUGUCAGAUUCUGGUGAAUCUGCGAAUUGUGCUGUAUAUCUC [A21G C68G] | 0.2
UAACAGGGGGCCACAGCAGAGGCGUUCACGUCGCAGCCCCUGUCAGAUUCUGGUGAAUCUGCGAAUUUUGCUGUAUAUCUC [A21G C68U] | 0.43
UAACAGGGGGCCACAGCAGAGGCGUUCACGUCGCAGCCCCUGUCAGAUUCUGGUGAAUCUGCGAAUUAUGCUGUAUAUCUC [A21G C68A] | 0.17
UAACAGGGGGCCACAGCAGAGGCGUUCACGUCGCAGUCCCUGUCAGAUUCUGGUGAAUCUGCGAAUUCUGCUGUAUAUCUC [A21G C37U] | 0.39
UAACAGGGGGCCACAGCAGAGGCGUUCACGUCGCAGACCCUGUCAGAUUCUGGUGAAUCUGCGAAUUCUGCUGUAUAUCUC [A21G C37A] | 0.42
UAACAGGGGGCCACAGCAGAGGCGUUCACGUCGCAGGCCCUGUCAGAUUCUGGUGAAUCUGCGAAUUCUGCUGUAUAUCUC [A21G C37G] | 0.19
UAACAGGGGGCCACAGCAGAGGCGUUCACGUCGCAUCCCCUGUCAGAUUCUGGUGAAUCUGCGAAUUCUGCUGUAUAUCUC [A21G G36U] | 0.07
UAACAGGGGGCCACAGCAGAGGCGUUCACGUCGCACCCCCUGUCAGAUUCUGGUGAAUCUGCGAAUUCUGCUGUAUAUCUC [A21G G36C] | 0.24
UAACAGGGGGCCACAGCAGAGGCGUUCACGUCGCAGCCCCUGUCAGAUUCUGGUGAAUCUGCGAAUUCUGCUGUAUAUCUU [A21G C81U] | 0.92
UAACAGGGGGCCACAGCAGAGGCGUUAACGUCGCAGCCCCUGUCAGAUUCUGGUGAAUCUGCGAAUUCUGCUGUAUAUCUC [A21G C27A] | 0.14
UAACAGGGGGCCACAGCAGAGGCGUUUACGUCGCAGCCCCUGUCAGAUUCUGGUGAAUCUGCGAAUUCUGCUGUAUAUCUC [A21G C27U] | 0.18
UAACAGGGGGCCACAGCAGAGGCGUUCACGUCACAGCCCCUGUCAGAUUCUGGUGAAUCUGCGAAUUCUGCUGUAUAUCUC [A21G G33A] | 0.33
UAACAGGGGGCCACAGCAGAGGCGUUCACGUCCCAGCCCCUGUCAGAUUCUGGUGAAUCUGCGAAUUCUGCUGUAUAUCUC [A21G G33C] | 0.14
UAACAGGGGGCCACAGCAGAGGCGUUCACGUCUCAGCCCCUGUCAGAUUCUGGUGAAUCUGCGAAUUCUGCUGUAUAUCUC [A21G G33U] | 0.19

Variant | self-cleavage
UAACAGGGGGCCACAGCAGAGGCGUUCACGUCGCAGCCCCUGUCAGAUUCUGGUGAAUCUGCGAAUUCUGUUGUAUAUCUC [A21G C71U] | 0.32
UAACAGGGGGCCACAGCAGAGGCGUUCACGUCGCAGCCCCUGUCAGAUUCUGGUGAAUCUGCGAAUUCUGAUGUAUAUCUC [A21G C71A] | 0.07
UAACAGGGGGCCACAGCAGAGGCGUUCACGUCGGAGCCCCUGUCAGAUUCUGGUGAAUCUGCGAAUUCUGCUGUAUAUCUC [A21G C34G] | 0.2
UAACAGGGGGCCACAGCAGAGGCGUUCACGUCGCAGCCCCUGUCAGAUUUUGGUGAAUCUGCGAAUUCUGCUGUAUAUCUC [A21G C50U] | 0.62
UAACAGGGGGCCACAGCAGAGGCGUUCACGUCGCAGCCCCUGUCAGAUUAUGGUGAAUCUGCGAAUUCUGCUGUAUAUCUC [A21G C50A] | 0.57
UAACAGGGGGCCACAGCAGAGGCGUUCACGUCGCAGCCCCUGUCAGAUUCUGGUUAAUCUGCGAAUUCUGCUGUAUAUCUC [A21G G55U] | 0.57
UAACAGGGGGCCACAGCAGAGGCGUUCACGUCGCAGCCCCUGUCAGAUUCUGGUAAAUCUGCGAAUUCUGCUGUAUAUCUC [A21G G55A] | 0.42
UAACAGGGGGCCACAGCAGAGGCGUUCACGUCGCAGCCCCUGUCACAUUCUGGUGAAUCUGCGAAUUCUGCUGUAUAUCUC [A21G G46C] | 0.18
UAACAGGGGGCCACAGCAGAGGCGUUCACGUCGCAGCCCCUGUCAAAUUCUGGUGAAUCUGCGAAUUCUGCUGUAUAUCUC [A21G G46A] | 0.42
UAACAGGGGGCCACAGCAGAGGCGUUCACGUCGCAGCCCCUGUCAUAUUCUGGUGAAUCUGCGAAUUCUGCUGUAUAUCUC [A21G G46U] | 0.36
UAACAGGGGGCCACAGCAGAGGCGUUCACGUCGCAGCCCAUGUCAGAUUCUGGUGAAUCUGCGAAUUCUGCUGUAUAUCUC [A21G C40A] | 0.26
UAACAGGGGGCCACAGCAGAGGCGUUCACGUCGCAGCCCUUGUCAGAUUCUGGUGAAUCUGCGAAUUCUGCUGUAUAUCUC [A21G C40U] | 0.46
UAACAGGGGGCCACAGCAGAGGCGUUCACGUCGCAGCCCCUGUCAGAUUCUGGUGAAUAUGCGAAUUCUGCUGUAUAUCUC [A21G C59A] | 0.31
UAACAGGGGGCCACAGCAGAGGCGUUCACGUCGCAGCCCCUGUCAGAUUCUGGUGAAUUUGCGAAUUCUGCUGUAUAUCUC [A21G C59U] | 0.38
UAACAGGGGGCCACAGCAGAGGCGUUCACGUCGCAGCCGCUGUCAGAUUCUGGUGAAUCUGCGAAUUCUGCUGUAUAUCUC [A21G C39G] | 0.37
UAACAGGGGGCCACAGCAGAGGCGUUCACGUCGCAGCCUCUGUCAGAUUCUGGUGAAUCUGCGAAUUCUGCUGUAUAUCUC [A21G C39U] | 0.3
UAACAGGGGGCCACAGCAGAGGCGUUCACGUCGCAGCCACUGUCAGAUUCUGGUGAAUCUGCGAAUUCUGCUGUAUAUCUC [A21G C39A] | 0.1
